Experimental data taken from paper PMC8053128, “Structures of Neisseria gonorrhoeae MtrR-operator complexes reveal molecular mechanisms of DNA recognition and antibiotic resistance-conferring clinical mutations”.

Legend:
[1] = biological target: T1, MtrR WT (Neisseria gonorrhoeae, UniProt P39897 1-210); assay: fluorescence polarization; nonspecific binding only; FP: 20 mM Tris-HCl pH 7.5, 100 mM NaCl, 2.5% glycerol, 1 mM TCEP, 1 ug BSA, 1 ug poly(dI-dC), 1 nM 5'-fluorescein DNA; temperature not stated; MtrR concentration as dimer; conditions: protein: recombinant; tags: N-terminal His6 removed by TEV (pMCSG7); chain copies: 2; label: 5'-fluorescein
[2] = biological target: MtrR R44A (Neisseria gonorrhoeae, UniProt P39897 1-210, R44A); assay: fluorescence polarization; FP: 20 mM Tris-HCl pH 7.5, 100 mM NaCl, 2.5% glycerol, 1 mM TCEP, 1 ug BSA, 1 ug poly(dI-dC), 1 nM 5'-fluorescein DNA; temperature not stated; MtrR concentration as dimer; conditions: protein: recombinant; tags: N-terminal His6 removed by TEV (pMCSG7); chain copies: 2; label: 5'-fluorescein
[3] = biological target: MtrR T43A (Neisseria gonorrhoeae, UniProt P39897 1-210, T43A); assay: as above; conditions: protein: recombinant; tags: N-terminal His6 removed by TEV (pMCSG7); chain copies: 2; label: 5'-fluorescein
[4] = biological target: MtrR G45A (Neisseria gonorrhoeae, UniProt P39897 1-210, G45A); assay: as above; conditions: protein: recombinant; tags: N-terminal His6 removed by TEV (pMCSG7); chain copies: 2; label: 5'-fluorescein
[5] = biological target: MtrR A39T (Neisseria gonorrhoeae, UniProt P39897 1-210, A39T); assay: as above; conditions: protein: recombinant; tags: N-terminal His6 removed by TEV (pMCSG7); chain copies: 2; label: 5'-fluorescein
[6] = biological target: MtrR G45D (Neisseria gonorrhoeae, UniProt P39897 1-210, G45D); assay: as above; conditions: protein: recombinant; tags: N-terminal His6 removed by TEV (pMCSG7); chain copies: 2; label: 5'-fluorescein
[7] = biological target: T1, MtrR WT; assay: as above; conditions: protein: recombinant; tags: N-terminal His6 removed by TEV (pMCSG7); chain copies: 2; label: 5'-fluorescein
[8] = biological target: MtrR W49F (Neisseria gonorrhoeae, UniProt P39897 1-210, W49F); assay: as above; conditions: protein: recombinant; tags: N-terminal His6 removed by TEV (pMCSG7); chain copies: 2; label: 5'-fluorescein
[9] = biological target: MtrR D79N (Neisseria gonorrhoeae, UniProt P39897 1-210, D79N); assay: as above; conditions: protein: recombinant; tags: N-terminal His6 removed by TEV (pMCSG7); chain copies: 2; label: 5'-fluorescein
[10] = biological target: MtrR H50A (Neisseria gonorrhoeae, UniProt P39897 1-210, H50A); assay: as above; conditions: protein: recombinant; tags: N-terminal His6 removed by TEV (pMCSG7); chain copies: 2; label: 5'-fluorescein
[11] = biological target: MtrR H105Y (Neisseria gonorrhoeae, UniProt P39897 1-210, H105Y); assay: as above; conditions: protein: recombinant; tags: N-terminal His6 removed by TEV (pMCSG7); chain copies: 2; label: 5'-fluorescein
[12] = biological target: MtrR T11A (Neisseria gonorrhoeae, UniProt P39897 1-210, T11A); assay: as above; conditions: protein: recombinant; tags: N-terminal His6 removed by TEV (pMCSG7); chain copies: 2; label: 5'-fluorescein
[13] = biological target: MtrR T43S (Neisseria gonorrhoeae, UniProt P39897 1-210, T43S); assay: as above; conditions: protein: recombinant; tags: N-terminal His6 removed by TEV (pMCSG7); chain copies: 2; label: 5'-fluorescein
[14] = biological target: Semet-MtrR WT (Neisseria gonorrhoeae, UniProt P39897 1-210); assay: X-ray crystallography; 2.6 A; 200 mM calcium acetate; FP: 20 mM Tris-HCl pH 7.5, 100 mM NaCl, 2.5% glycerol, 1 mM TCEP, 1 ug BSA, 1 ug poly(dI-dC), 1 nM 5'-fluorescein DNA; temperature not stated; MtrR concentration as dimer; conditions: protein: recombinant; tags: N-terminal His6 removed by TEV (pMCSG7); chain copies: 2

B1: emrAB 22mer (dsDNA)
DNA 1: AGTCGGCTATATCATTGCTGTC
DNA 2: GACAGCAATGATATAGCCGACT
- binding result [1]: no binding
- binding result [2]: no binding
- binding result [3]: no binding
- binding result [4]: no binding
- binding result [5]: no binding
- binding result [6]: no binding

B2: mtrCDE 27mer (dsDNA)
DNA 1: TTTTTATCCGTGCAATCGTGTATGTAT
DNA 2: ATACATACACGATTGCACGGATAAAAA
- Kd [7]: 0.043 ± 0.004 µM

B3: mtrCDE 21mer (dsDNA)
DNA 1: TATCCGTGCAATCGTGTATGT
DNA 2: ACATACACGATTGCACGGATA
- Kd [8]: 0.38 ± 0.044 µM
- binding result [9]: no binding
- Kd [7]: 0.05 ± 0.004 µM
- binding result [2]: no binding
- binding result [3]: no binding
- Kd [5]: 0.17 ± 0.011 µM
- binding result [6]: no binding
- Kd [10]: 0.99 ± 0.1 µM
- Kd [11]: 0.64 ± 0.13 µM
- Kd [12]: 1.08 ± 0.093 µM

B4: GpY 27mer (dsDNA)
DNA 1: TACATAGCTGGTGTTATGTAAACGGCC
DNA 2: GGCCGTTTACATAACACCAGCTATGTA
- binding result [1]: no binding
- binding result [2]: no binding
- binding result [3]: no binding
- binding result [4]: no binding
- binding result [5]: no binding
- binding result [6]: no binding
- Kd [11]: 0.86 ± 0.08 µM

B5: rpoH 27mer (dsDNA)
DNA 1: TACATACGTGGTTGTATGTAAACGGCC
DNA 2: GGCCGTTTACATACAACCACGTATGTA
- Kd [8]: 0.053 ± 0.003 µM
- Kd [7]: 0.008 ± 0.001 µM
- binding result [2]: no binding
- binding result [3]: no binding
- Kd [13]: 0.86 ± 0.18 µM
- Kd [5]: 0.031 ± 0.003 µM
- binding result [6]: no binding
- Kd [10]: 0.376 ± 0.035 µM
- Kd [11]: 0.34 ± 0.057 µM
- Kd [12]: 0.441 ± 0.037 µM

B6: ApY 27mer (dsDNA)
DNA 1: TACAATCGTGGTTGATTGTAAACGGCC
DNA 2: GGCCGTTTACAATCAACCACGATTGTA
- Kd [7]: 0.293 ± 0.024 µM

B7: rpoH 21mer (crystal) (dsDNA)
DNA 1: TACATACGTGGTTGTATGTAA
DNA 2: TTACATACAACCACGTATGTA
- binding result [14]: binds
